Results as given in the supplement of paper PMC11908140.

B1: library; numbered along this chain (parent)
chain: MRKPRAAVGSGHRKQAASQEGRQKHAKNNSQAKPSACDGLARQPEEVVLQASVSSYHLFRDVAEVTAFRGSLLSWYDQEKRDLPWRRRAEDEMDLDRRAYAVWVSEVMLQQTQVATVINYYTGWMQKWPTLQDLASASLEEVNQLWAGLGYYSRGRRLQEGARKVVEELGGHMPRTAETLQQLLPGVGRYTAGAIASIAFGQATGVVDGNVARVLCRVRAIGADPSSTLVSQQLWGLAQQLVDPARPGDFNQAAMELGATVCTPQRPLCSQCPVESLCRARQRVEQEQLLASGSLSGSPDVEECAPNTGQCHLCLPPSEPWDQTLGVVNFPRKASRKPPREESSATCVLEQPGALGAQILLVQRPNSGLLAGLWEFPSVTWEPSEQLQRKALLQELQRWAGPLPATHLRHLGEVVHTFSHIKLTYQVYGLALEGQTPVTTVPPGARWLTQEEFHTAAVSTAMKKVFRVYQGQQPGTCMGSKRSQVSSPCSRKKPRMGQQVLDNFFRSHISTDAHSLNSAAQ

Variants of: B1
Assay: 8OG:A repair function score (normalized; synonymous = 0, nonsense = -1) (normalized log-likelihood score); higher = more repair activity (WT-like)
Conditions: with 8OG:A DNA repair reporter (GFP) in HEK-293 MUTYH KO cells
Description: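 Saturation mutagenesis (NNN codon scan) of the MUTYH cDNA (521-aa nuclear isoform NM_001048174.1 / NP_001041639), stably expressed under doxycycline induction in HEK-293 MUTYH knockout cells. Cells were co-transfected with an 8OG:A-bearing GFP repair reporter plus mCherry and sorted 72 h later into GFP+ and GFP− bins, three replicates per tile. The Rosace log2 enrichment (GFP+ vs GFP−) was converted per tile to a normalized function score with synonymous variants centered at 0 and nonsense variants (codons 1-471) at -1; low-abundance variants were removed.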

First: V438N
Second: P247F
The “8OG:A repair function score” value of the first is higher: 0.103 for the first, -1.01 for the second.

Compared with E140G, G434A is higher in “8OG:A repair function score” value: -0.183 for the first, 0.188 for the second.

Compared with R217N, T460Y is higher in “8OG:A repair function score” value: -1.04 for the first, -0.219 for the second.

Going from K164M to E275G, the “8OG:A repair function score” value falls from 0.168 to -0.00445.

Compared with R213V, V274C is higher in “8OG:A repair function score” value: -1.01 for the first, -0.176 for the second.

First: Q110V
Second: Q435G
The “8OG:A repair function score” value of the first is higher: 0.0461 for the first, -0.0569 for the second.

First: D94Q
Second: R81S
The “8OG:A repair function score” value of the first is higher: -0.215 for the first, -0.535 for the second.

Going from P316Q to W235V, the “8OG:A repair function score” value falls from 0.0822 to -0.467.

Compared with R97E, Q159I is higher in “8OG:A repair function score” value: 0.00633 for the first, 0.0245 for the second.

Compared with E452N, Q182G is higher in “8OG:A repair function score” value: -0.395 for the first, -0.00226 for the second.

Going from A519N to Y120V, the “8OG:A repair function score” value falls from -0.00616 to -0.224.

Compared with V218N, E341Y is higher in “8OG:A repair function score” value: -0.444 for the first, -0.00525 for the second.

First: V485L
Second: P377G
The “8OG:A repair function score” value of the first is higher: 0.0118 for the first, -1.26 for the second.

Compared with A291S, D502N is higher in “8OG:A repair function score” value: -0.000102 for the first, 0.011 for the second.

First: A99H
Second: R246W
The “8OG:A repair function score” value of the first is lower: -1.07 for the first, -0.645 for the second.

Compared with E141T, A220L is lower in “8OG:A repair function score” value: -0.0124 for the first, -0.81 for the second.

Going from G248C to V218G, the “8OG:A repair function score” value rises from -0.885 to -0.74.

Going from P474S to K3F, the “8OG:A repair function score” value rises from -0.00281 to 0.00169.

First: L423A
Second: L73W
The “8OG:A repair function score” value of the first is higher: 0.0643 for the first, -0.824 for the second.

First: L387A
Second: R163S
The “8OG:A repair function score” value of the first is lower: -0.21 for the first, -0.122 for the second.

First: K80A
Second: R2M
The “8OG:A repair function score” value of the first is higher: -7.55e-05 for the first, -0.169 for the second.

Compared with A354G, R60V is higher in “8OG:A repair function score” value: -0.0387 for the first, 0.00595 for the second.

Going from Q472S to V102W, the “8OG:A repair function score” value falls from 0.0274 to -1.13.

Going from S138D to H416Q, the “8OG:A repair function score” value rises from -0.192 to 0.399.

Going from I118G to S419E, the “8OG:A repair function score” value falls from -0.107 to -0.583.

First: Q144R
Second: S74H
The “8OG:A repair function score” value of the first is higher: 0.0872 for the first, 0.00229 for the second.

First: V327E
Second: I509C
The “8OG:A repair function score” value of the first is lower: -0.178 for the first, -0.00892 for the second.

First: T436L
Second: V47C
The “8OG:A repair function score” value of the first is higher: 0.548 for the first, 0.0227 for the second.

First: W235L
Second: T406V
The “8OG:A repair function score” value of the first is lower: -0.406 for the first, 0.013 for the second.

First: F330S
Second: V117T
The “8OG:A repair function score” value of the first is lower: -0.765 for the first, 0.0387 for the second.

Compared with F330L, V348I is higher in “8OG:A repair function score” value: -0.149 for the first, -0.0535 for the second.

First: Q397T
Second: A63N
The “8OG:A repair function score” value of the first is lower: -0.463 for the first, -0.101 for the second.

Compared with L349K, P306L is higher in “8OG:A repair function score” value: -1.07 for the first, -0.00346 for the second.

Going from R86L to K481V, the “8OG:A repair function score” value rises from -0.926 to -0.0202.

Going from L149V to D77R, the “8OG:A repair function score” value rises from -0.906 to -0.122.

Going from V500R to S55C, the “8OG:A repair function score” value falls from 0.00797 to -0.043.

Going from N210C to Q363S, the “8OG:A repair function score” value rises from -0.854 to -0.169.

First: L355W
Second: S510I
The “8OG:A repair function score” value of the first is higher: -0.0689 for the first, -0.0731 for the second.

First: V47G
Second: A357N
The “8OG:A repair function score” value of the first is lower: -0.0668 for the first, 0.104 for the second.

Compared with P244I, S486D is higher in “8OG:A repair function score” value: -0.574 for the first, 0.00623 for the second.

First: W124I
Second: C216F
The “8OG:A repair function score” value of the first is higher: -0.714 for the first, -0.905 for the second.

First: L361H
Second: E342L
The “8OG:A repair function score” value of the first is lower: -1.22 for the first, 0.0472 for the second.

Compared with L131N, A6D is higher in “8OG:A repair function score” value: -0.249 for the first, -0.15 for the second.

Compared with N210I, M496E is higher in “8OG:A repair function score” value: -1 for the first, 0.00855 for the second.

Going from G497I to D77T, the “8OG:A repair function score” value falls from -0.0179 to -0.0415.

Compared with K3V, L516E is higher in “8OG:A repair function score” value: -0.0444 for the first, 0.0196 for the second.

Going from L134R to N517F, the “8OG:A repair function score” value rises from -1.01 to -0.0651.

Compared with H57M, L392V is higher in “8OG:A repair function score” value: -1.63 for the first, -0.289 for the second.

Compared with P244G, R409S is higher in “8OG:A repair function score” value: -0.385 for the first, 0.0978 for the second.

Compared with T440H, L134T is lower in “8OG:A repair function score” value: -0.111 for the first, -0.714 for the second.

Going from Y190S to V427Q, the “8OG:A repair function score” value falls from -0.22 to -1.16.

Compared with A519E, K337Y is lower in “8OG:A repair function score” value: 0.0285 for the first, -0.118 for the second.

Going from V379R to A253G, the “8OG:A repair function score” value rises from -0.476 to -0.438.

Going from L229E to Q132L, the “8OG:A repair function score” value falls from -0.064 to -0.194.

First: L501G
Second: K333F
The “8OG:A repair function score” value of the first is higher: 0.00711 for the first, -0.221 for the second.

Going from N329R to L145R, the “8OG:A repair function score” value rises from -0.0858 to -0.0437.

Going from A334Q to Y76P, the “8OG:A repair function score” value falls from -0.103 to -1.8.

Compared with W103S, T130P is higher in “8OG:A repair function score” value: -1.14 for the first, -0.9 for the second.

Compared with Q233W, R86E is lower in “8OG:A repair function score” value: -0.0138 for the first, -2.16 for the second.

Going from G188Q to E350R, the “8OG:A repair function score” value rises from -0.909 to -0.162.

Going from A291G to R87G, the “8OG:A repair function score” value rises from -0.0909 to -0.0274.

Compared with T179L, A400P is lower in “8OG:A repair function score” value: 0.0629 for the first, -0.723 for the second.

Compared with V414A, P267M is lower in “8OG:A repair function score” value: -0.157 for the first, -0.774 for the second.

Going from M93L to R281I, the “8OG:A repair function score” value falls from -0.0284 to -0.176.

Compared with D91T, R189K is lower in “8OG:A repair function score” value: -0.0112 for the first, -0.0681 for the second.

First: H420K
Second: V458F
The “8OG:A repair function score” value of the first is lower: -0.792 for the first, -0.4 for the second.

First: A513Q
Second: R42K
The “8OG:A repair function score” value of the first is lower: 0.0184 for the first, 0.0776 for the second.

Compared with C347Q, H508S is higher in “8OG:A repair function score” value: -1.57 for the first, -0.00585 for the second.

First: E79R
Second: H454S
The “8OG:A repair function score” value of the first is higher: 0.00654 for the first, -0.168 for the second.

First: A357M
Second: L134A
The “8OG:A repair function score” value of the first is lower: -0.0956 for the first, -0.0633 for the second.

Compared with G209V, E79Y is lower in “8OG:A repair function score” value: -0.00522 for the first, -0.00762 for the second.

Going from V274T to I221H, the “8OG:A repair function score” value falls from -0.241 to -0.866.

Compared with L149F, V284Y is higher in “8OG:A repair function score” value: -0.43 for the first, -0.0139 for the second.

First: F59M
Second: Q288E
The “8OG:A repair function score” value of the first is lower: -0.121 for the first, -0.0177 for the second.

First: G193L
Second: R217W
The “8OG:A repair function score” value of the first is higher: -0.637 for the first, -0.993 for the second.

First: T263V
Second: Q358M
The “8OG:A repair function score” value of the first is higher: -0.0463 for the first, -0.074 for the second.

Compared with R482I, R163T is lower in “8OG:A repair function score” value: -0.00811 for the first, -0.128 for the second.

Compared with V207N, R340K is higher in “8OG:A repair function score” value: -0.883 for the first, -0.0186 for the second.

Compared with V165I, A457L is lower in “8OG:A repair function score” value: -0.0615 for the first, -0.583 for the second.

Going from Q472K to S71N, the “8OG:A repair function score” value rises from -0.009 to -0.00566.

Going from V207C to A41W, the “8OG:A repair function score” value rises from -0.542 to -0.0976.

Going from G353C to A223C, the “8OG:A repair function score” value falls from -0.0857 to -0.145.

Going from C304K to Q435P, the “8OG:A repair function score” value rises from -0.535 to 0.288.

In the case of S227F, the “8OG:A repair function score” value is reported as -0.188.
